From the nanobody polyreactivity screen of Harvey et al. (2022)

Experiment: yeast display, Sf9 membrane polyspecificity reagent, FACS + sequencing; frameworks hold sequencing errors
Procedure, shortened: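 Sorting gates, low and high (top ~1%), were placed on anti-HA fluorescence to track expression and on streptavidin fluorescence to track reagent binding. A clone's polyreactivity label is taken from the gate it came out of. The reagent was 10% biotinylated, detergent-solubilized Sf9 membrane, applied for 1 hour at 4 °C to galactose-induced yeast display cells.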

Sequence	polyreactivity (PSR sort gate)
QVQLVESGGGLVQAGGSLRLSCAASGFIFTPYAMGWYRQAPGKERELVAAITWRGARTYYADSVKGRFTISRDIAKNSVYLQMNSLKPEDTAVYYCAALSRRSYAPRDDYWGQGTQVTVSS	high polyreactivity
QVQLVESGGGLVQAGGSLRLRCAASGSIFKGYAMGSYRQAPGKERELVAAIRGSGGSSYYADSVKGRFTISRDNAKNTVYFQLISLTPEDTAFYYCAAVAYTGGPRKLGFNYWGQATQVTVSS	high polyreactivity
QVQLVESGGGLVQAGGSLRLSCAASGRTFDSYTMGWYRQAPGKERELVAAINYSVASTNYADSLKGRFTISRDNAKITVYLQMNSLKTEDTAVYYCNRASAGWGPGTQVTVSS	low polyreactivity
QVQLVESGGGLVQAGGSLRLSCAASGFTSYLYTMGWYRQAPGKERELVATITLRGGSTYYADSVKGRFTISRDNAKNTVYLQMNSLKPEDTAVYYCAAPAYLTSHSRYDYWGQGTQVSVSS	high polyreactivity
QVQLVESGGGLGQAGGSLRLSCAASGRTLGAYAMGWYRQAPGKERELVAAISGSGGSTYYADSVKGRFTISRDNAKNTVYLQMNSLKPEDTAVYYCAAVLSRYGQSISMYYWGQGTQVTVSS	high polyreactivity
QVQLVESGGGLVQAGGSLRLSCAASGSTFGGYAMGWYRPAPGKERELVAAINRSGARTYYADSVKGRFTISRDNAKNTVYLQMNSLKPEDTAVYYCNKAQGSHGAYDYWGQGTQVTVSS	high polyreactivity
QVQLVESGGGLVQAGGSLRLSCAASGFTFQVYAMGWYRQAPGKERELVADITESGDSTYYADSVKGRFTISRDNAKNTVYLQMNSLKPEDTAVYYCAADGGWFWSLFYTFAFDYWGQGTQVTVSS	low polyreactivity
QVQHVESGRGLVQAGGSLRLSCASSGFTFRRNAMGWYRQAPGKVRELVAVITSSARTNYADSVKGRFTISRDNAKNTVYLQMKSLKPEDTAVYYCNAYGYRQSSSDKYGYWGQCTQVTVSS	high polyreactivity
QVQLVESGGGLVQAGGSLRLSCAASGRTFSIYAKGWYRQAPGKERELVAAISNGGRTKYADSVKGRFTISRDNAKNTVYLQMNSLKPEDTAVYYCAASSYTHKRYPSPYDYWGQGTQVTVSS	high polyreactivity
QVQLVESGGGLVQAGGSLRLRCADSGSIFHCNAMGWNRQAPGKERELVAGITTSGGTTYYADTVKGRFTISRDNAKNTVYVQMKSLKPEATAVYYCAARIIRWRPRWPSYGKYDYWGQVTQVTVSS	low polyreactivity
QVQLVESGGGLVQAGGSLRLSCAASGRIFDRNAMGWYRQAPGKERELVARIDPGDDTNYADSVKGRFTISRDNAKNTVYLQMNSLKPEDTAVYYCAADGVVVVAADMYYWGQGTQVTVSS	low polyreactivity
QVQLVETGGGLVQAGGSLRLSCAASGPFYPYYAMGSYRQAPGKERELVATISTAGSTNYADSVKGRFTISRDNATNTVYLQMNSLIPEDTAVYYCATRNTWYHRGYDYWGQGTQVPVSS	low polyreactivity
QVQLVESGGGLVQAGVSLRLSCAASGSTFGENDMGWYRQAPGKERELVAAITWSGGSTYYADSVKGRFTISRDNAKNTVYLQMNSLNPEVTAVYYCNAEGVGRYSPVSHTFDYWGQGTQVTVSS	low polyreactivity
QVQLVESGGGLVQAGGSLRLSCAASGGTFYVNALGWYRQAAGKERELVAAISYSGGNTYYADSVKGRFTISRDNAKNTVYLQMNSLKPEDTAVYYCAGEVFPWWGDDYWGQGTQVTVSS	low polyreactivity
QVQLVEAGGGLVQAGGSLRLSCAASGFIFPSYVRGWYSQAPGKERELVATISRSGGSTYYADSVKGRFTISRDNAKNTGYLQMNSLKPEDTAVYYCATRRRGPYSPYSPYDYWGQGTQVTVSS	high polyreactivity
QVQLVESGGGLVQAGGSLRLSCAASGRIFRFYAMGWYRQAPRKERELVATIRRGDSTSYADSVKGRFTISRDNAKNTVYLQMNSLKPEDTAVYYCAAVWPSHVGTTYFWHKYGYWGQGTQVTVSS	high polyreactivity
QVQLVESVGGLVQAGGSLRLSCAASGRTLGKYAMGWYIQAPGKERELVAAIRWTGTSTYYADSVKGRFTISRDNAKNTVYLQMNSLKPEDTAVYYCAKGTVHSRPDFGRGWYRWDDYWGQGTQVTVSS	high polyreactivity
QVQLVESGGGLVQAGGSLRLTCAASGNTFDYYAMGWYRQAPGKERELVAAITRGGSTNYADSVKGRFTISRDNAKNTVYLQMNSLKPEDTAVYYCAAEQRAPRFADYDYWGQGTQVTVSS	low polyreactivity
QVQLVESGGGSVQAGGSLRLSCAASGRTFVRYAMGWYRQAPGKERELVAAITWSGGSTYYADSVKGRFTISRDNAKNTVYLQMNSLKPEDTAVFNCADYPVQWGSLYDYWGQGTQVTVSS	high polyreactivity
QVQLVESGGGLVQAGGSLRLTCAASGSNFVYNAMGWYRQAPGKERELVAAISSRGGSTYYADSVKGRFTISRDNAKNTVYLQMKSLKPEDTAVYYCNAYGPRAYRGGSWGQGTQVTVSS	high polyreactivity

Sequence	polyreactivity (PSR sort gate)
QVQLVESGGGLVQAGGSLRLSCAASGSIFSHNAMGWYRQAPGKERELVAAISRSGGSTYYADSVKGRFTISRDNAKNTVYLQMKSLKPEDTAVYYCAVRAYKVSRYYYWGQGSQVTVSS	low polyreactivity
QLQLVESGGGLVQAGGSLRLSCAASGSIFYPYAMGWYRQAPGKERELVATINEDGGSTYYADSVKGRFTISRDNAKNTVYLQMNSLKQEDTAVYYCNTDHFEDYHTDFWSDYEYWGHGTQVTVSS	low polyreactivity
QVQLVESGGGLVQAGGSLRLSCAASVSIFEWYAMGRYRQAHGKERELVAAINSGGSTYYADSVKGRFTISRDNAKNTVYLQMNSLKPEDTAVYYCAAGTQAHAYVVRPIEMDYWGQGTQVTVSS	low polyreactivity
QVHLVESGGGLVQAGGSLRLSSAASGSTFVFNAMAWYRQAPGKESELVAGISWSGGSTYYADSVKGRFTISRDNSKNTVYLQMKSLKPEDTAVYYCAVDGYFWGYYERDYSGQGTQVTVSS	low polyreactivity
QVQLVESGGGLVQAGASLRLSCAASGFTFDENAMGWYRQAPGINYSGASTYYAHSVKGRFTISRDNAKNTVYIHMNSLQPEDTAVYYCAAEVVAQMNYWGQGTQVTVSS	low polyreactivity
QVQLVESGGGLVQAGGSLRLSCAASGIIFPNYAMGWYRPAPGKERELVAAIDDDASTTYADSVKGRFTISRDNAKNTVYLQMNSLKPEDTAVYYFAADGFDWYDWRWTYDYWGQGTQVTVSS	high polyreactivity
QVQLVESGGGLVQAGGSLRLSCAASGNTSVPYAMGWYRQAPGKERELVARITWSTGRTYYADSVKGRFTISRDNAKNTVYLQMNSLKPEDTAVYYCATEALLPCSGGDYWGQGTQVTVSS	low polyreactivity
QVQLVESGGGLVQAGGSLRLSSAASGITFRGSAMGWYRQAPGKERELVASITNTDSTYYADSVKGRFTISRDNAKHTVYLQMNSLKPEDTAVYYCAARRGRKYGYWGQGTQVTVSS	high polyreactivity
QVQLVESGGGLVQAGGSLRLSCAASGSIIQGYAMGWYRQAPGKERELVAVITTSGGSTYYADSVKGRFTISRDNAKNTVYLQMNSLKPEDTAVYYCAVGLLVYSRTYIGQAYFRYNYWGQGTQVTVSS	high polyreactivity
QVQLVESGGGLVQAGGSLRLSCAASGSTFPANAMGWYRQAPGKERELVAAISSVGSTNYADSVRGRFTLSRDNAKNTVYLQMNSLKPEDTAVYYCATQPTWYTVGDLDYWGQGTQVTVSS	low polyreactivity
QVQLVESGGCLVQAGGSLRLSCAASGSTFPVYSMGWYRQAPGKERELVAAISYSGGSTNYADSVKGRFTISRDNAKNTVYLQMNSLKPEDTAVYYFAADTESHHEGNYWGQGTQVTVSS	low polyreactivity
QVQLVESGGGLVQAGGSLRLSCAASGRTLVPYAMGWYRQAPGKERELVAAINSSGGSTYYADSVKGRFTISRDNEKNTVYLQMNSLKPEDTAVYYCNVQSVHFRLWKDNYWGQGTQVTVSS	high polyreactivity
QVQLVESGGGLVQAGGSLRLSCSASGRIFSANAMGWYRQAPVKERELVATISTGGGRTYYADSVKGRFTISRDNAKNTVYLQMNSLKPEDTAVYYCNATRNYARVRYYYWGQGNQVTVSS	high polyreactivity
QVQLVESGGGLVQAGGSLRLSCAASGRIFYFNTMGWYRQAHGKEIELVAAITRNGGSTYYADSVKWRFTISRDNAKNTVYFQMNSLKPEDTAVYYCNARYRAAKRGKAWYRYDYWGQGTQVTVSS	high polyreactivity
QVQLVESGGGLVQAGGSLRLSCAASRRTFKPYAMGWYRQAPGKERELVARISGSGGSTYYADSVKGRFTISRDNAKNTVYLQMNSLKPEDTAVYYCATTPYYWFDYWGQGTQVTVSS	low polyreactivity
QVQLVESGGGLVQAGGSLRLSCAASGSYTMGWYRQAPGKERELVAAISKSCGSTYYADSVKGRFTISRDNAKNTVYLQMNSLKPDDTAVYYCAAVGWWGTYDYWGQGTQVTVSS	high polyreactivity
QDQLVESGGGLVQAGGSLRLSCAASGFTFGSYAMGWYRQAHGKERELVAAITASGGSTYYADSVKGRFTISRDNAKNTVYLQMNSLKPEDTAFYYCATRRYDGVAAFRMYYWGQGTQVTVSS	high polyreactivity
QVQLVESGGGLVQAGGSLRLTCAASGSTFYFNAIGWYRQAPGKESELVAAISGGGRTNYADSVKGRFTISRDNAKNTVYLQMNSLKPEDTAVYYCAARNRGLRLSNYFGGNYNRDYWGQGTQVTVSS	low polyreactivity
QVQLVESGGGLVQAGGSLRLSCAASGYIFKGNVMGWYRQAPGKERELVAAISSSGGRTYYADSVKWRFTISRDNAKNNVYLQMYSLKPEDTAVYYCNTKHRTKPTGPVDYWGQGTQVTVSS	high polyreactivity
QVQLVESGGGLVQAGGSLRLSCAASGRTFCLNAMGWYRQAPGKERELVAAISKSDDSTYYADSVKGRFTISRDNAKNTVYLQMNSLKPEDTAVYYCNADYYGWWYDTDYIGGYDYDYWGQGTQVTVSS	low polyreactivity
